In series [1] the target is T1, His6-gp7 (Bacillus phage GIL01) (UniProt Q7WSG2).
T1 sequence: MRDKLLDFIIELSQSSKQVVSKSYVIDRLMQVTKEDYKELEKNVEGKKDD
Put plainly: DNase I footprinting. The following applies: EMSA/footprint: 80 mM NaCl, 25 mM Tris pH 7.5, 5 mM EDTA, 2 mM DTT, 0.1 mg/ml BSA, 0.05 ug/ul poly(dI-dC), room temp; SPR: 25 mM Tris-HCl pH 7.3, 140 mM NaCl …. (A gel shift assay detects complexes by their altered migration in electrophoresis.)

For series [2], the target named is T1, His6-gp7 (Bacillus phage GIL01). Put plainly: EMSA. Particulars: EMSA/footprint: 80 mM NaCl, 25 mM Tris pH 7.5, 5 mM EDTA, 2 mM DTT, 0.1 mg/ml BSA, 0.05 ug/ul poly(dI-dC), room temp; SPR: 25 mM Tris-HCl pH 7.3, 140 mM NaCl ….
Series [3] deals with T2, His6-LexA (Bacillus thuringiensis LexA repressor) (B. thuringiensis, UniProt A0RH75 1-206).
T2 construct: LexA, SOS transcription repressor of Bacillus thuringiensis; insert defined by nucleotide coordinates 3 624 082 through 3 624 714 in B. cereus strain G9842 (GenBank NC_011772), cloned BamHI-HindIII into pQE-30; also called His-tagged LexA; B. thuringiensis LexA repressor; source: E. coli M15 [pREP4], pQE-30, purified (Ni-NTA); not shown: His6, N-terminal, kept
T2 sequence (looked up): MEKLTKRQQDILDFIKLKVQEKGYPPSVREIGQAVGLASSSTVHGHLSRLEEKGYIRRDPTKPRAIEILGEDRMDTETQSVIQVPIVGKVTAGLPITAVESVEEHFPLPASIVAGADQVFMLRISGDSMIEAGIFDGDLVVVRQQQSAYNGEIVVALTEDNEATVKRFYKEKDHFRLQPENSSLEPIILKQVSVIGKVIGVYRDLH
Put plainly: SPR; Biacore T100, CM5 chip, His-tagged LexA covalently coupled (EDC/NHS, ~2000 RU), no DNA; His-tagged gp7 (1.6-50 nM, 360 s) or gp1 as analyte; 25°C, 30 μl/min, SPR buffer (25 mM Tris-HCl pH 7.3, 140 mM NaCl, 5 mM EDTA, 2 mM DTT, 0.1 mg/ml BSA, 0.005% P20); apparent KD from plot of response against concentration, assuming one gp7 monomer per LexA monomer. Particulars: both partners purified. Background: SPR reads the build-up and loss of mass on a sensor chip optically.

The target in another series is T3, His6-gp7 (Bacillus phage GIL01, UniProt Q7WSG2 1-50).
T3 chain: T1 sequence
Put plainly: SPR; 300 nM gp7; EMSA/footprint: 80 mM NaCl, 25 mM Tris pH 7.5, 5 mM EDTA, 2 mM DTT, 0.1 mg/ml BSA, 0.05 ug/ul poly(dI-dC), room temp; SPR: 25 mM Tris-HCl pH 7.3, 140 mM NaCl, 5 mM EDTA, 2 mM DTT, 0.1 mg/ml BSA, 0.005% P20, 25 C. The following applies: protein: recombinant; tags: N-terminal His6 (pQE-30); label: 3'-biotin on S1 anchor; 42 bp; 15 nt 5' overhang annealed to S1.

Positions count from the first letter of the chain named. Where no end group is shown, it is not given here.

“GTGTGACAAGATATTCCAAGGGTGCTATAATAGGAAATGAGTTAAAAAACGAACAAGCGTTTTATAAGTGTTCGGTTTTTGTAACATAACTGTAATATAAAAACATTTGCATTACTGGTAACTTTCGGGTAATATTGGTAGCAGAGAGGGACAAACGGGACAAATCGAGACACGATACATACTCTCTATACAAGTGAAAAGAAGGTGGTGCATAT (double strand) [P1 footprint probe WT (-39 to +176)]”: the binding entry in series [1] is reported as “no binding”.

Turning to “CCAAGGGTGCTATAATAGGAAATGAGTTAAAAAACGAACAAGCGTTTTATAAGTGTTCGGTTTTTGTAACATAACTGTAATATAAAAACATTTGCATTACTGGTAACTTTCGGGTAATATTGGTAGCAGAGAGGGACAAACGGGACAAATCGAGACACGATACATACTCTCTATACAAGTGAAAAGAAGGTGGTGCATAT (double strand) [P1 EMSA probe WT (-25 to +176)]”, in series [2], the binding entry was “no binding”.

As for His6-MRDKLLDFIIELSQSSKQVVSKSYVIDRLMQVTKEDYKELEKNVEGKKDD (natural protein) [His6-gp7 (bacteriophage GIL01 gp7, product of ORF7)], in series [3], the Kd was determined as 17.7 nM.

B1: SPR Wt (dinBox1+dinBox1b) (dsDNA)
DNA 1: GTTACTACTCGAGCGTTAAAAAACGAACAAGCGTTTTATAAGTGTTCGGTTTTTGTA
DNA 2: TACAAAAACCGAACACTTATAAAACGCTTGTTCGTTTTTTAA
DNA 3: CGCTCGAGTAGTAAC
B1: in the series with His6-gp7, the binding result is “no binding”.

B2: SPR Ns (non-specific; both boxes mutated) (dsDNA)
DNA 1: B1 DNA 1 with G25T, G33T, G44A, G48A
DNA 2: B1 DNA 2 with C10T, C14T, C25A, C33A
DNA 3: CGCTCGAGTAGTAAC
Turning to B2, the binding result in the series with His6-gp7 is reported as “no binding”.

B3: SPR B12 (dinBox1 double mutant) (dsDNA)
DNA 1: B1 DNA 1 with G25T, G33T
DNA 2: B1 DNA 2 with C25A, C33A
DNA 3: CGCTCGAGTAGTAAC
On to B3, for which the binding result with His6-gp7 is “no binding”.

B4: SPR B11 (dinBox1 single mutant) (dsDNA)
DNA 1: B1 DNA 1 with G33T
DNA 2: B1 DNA 2 with C25A
DNA 3: CGCTCGAGTAGTAAC
In the case of B4, in the series with His6-gp7, the binding result is recorded as “no binding”.

B5: SPR B22 (dinBox1b double mutant) (dsDNA)
DNA 1: B1 DNA 1 with G44A, G48A
DNA 2: B1 DNA 2 with C10T, C14T
DNA 3: CGCTCGAGTAGTAAC
On to B5, for which the binding result with His6-gp7 is “no binding”.

B6: SPR B21 (dinBox1b single mutant) (dsDNA)
DNA 1: B1 DNA 1 with G48A
DNA 2: B1 DNA 2 with C10T
DNA 3: CGCTCGAGTAGTAAC
Regarding B6, the binding result with His6-gp7 is recorded as “no binding”.

(Values after paper PMC4551915, “Bacteriophage GIL01 gp7 interacts with host LexA repressor to enhance DNA binding and inhibit RecA-mediated auto-cleavage” (Nucleic Acids Research, 2015).)
